Source: patent publication US20200123260A1
Values belong to the binder of their own block, whether it stands above or below them.

Experiments:
[1] = target: hTrkA in the SHC1 recruitment assay (U2OS, Discoverx Pathhunter) (human) (UniProt P04629); experiment: cell-based or functional assay
[2] = target: hTrkB-a isoform fused to a small peptide epitope, in U2OS cells (Discoverx Pathhunter) (human) (UniProt Q16620); experiment: cell-based or functional assay
[3] = target: hTrkC in the SHC1 recruitment assay (U2OS, Discoverx Pathhunter) (human) (UniProt Q16288); experiment: cell-based or functional assay
hTrkC in the SHC1 recruitment assay (U2OS, Discoverx Pathhunter) (human), sequence (Q16288 32-839): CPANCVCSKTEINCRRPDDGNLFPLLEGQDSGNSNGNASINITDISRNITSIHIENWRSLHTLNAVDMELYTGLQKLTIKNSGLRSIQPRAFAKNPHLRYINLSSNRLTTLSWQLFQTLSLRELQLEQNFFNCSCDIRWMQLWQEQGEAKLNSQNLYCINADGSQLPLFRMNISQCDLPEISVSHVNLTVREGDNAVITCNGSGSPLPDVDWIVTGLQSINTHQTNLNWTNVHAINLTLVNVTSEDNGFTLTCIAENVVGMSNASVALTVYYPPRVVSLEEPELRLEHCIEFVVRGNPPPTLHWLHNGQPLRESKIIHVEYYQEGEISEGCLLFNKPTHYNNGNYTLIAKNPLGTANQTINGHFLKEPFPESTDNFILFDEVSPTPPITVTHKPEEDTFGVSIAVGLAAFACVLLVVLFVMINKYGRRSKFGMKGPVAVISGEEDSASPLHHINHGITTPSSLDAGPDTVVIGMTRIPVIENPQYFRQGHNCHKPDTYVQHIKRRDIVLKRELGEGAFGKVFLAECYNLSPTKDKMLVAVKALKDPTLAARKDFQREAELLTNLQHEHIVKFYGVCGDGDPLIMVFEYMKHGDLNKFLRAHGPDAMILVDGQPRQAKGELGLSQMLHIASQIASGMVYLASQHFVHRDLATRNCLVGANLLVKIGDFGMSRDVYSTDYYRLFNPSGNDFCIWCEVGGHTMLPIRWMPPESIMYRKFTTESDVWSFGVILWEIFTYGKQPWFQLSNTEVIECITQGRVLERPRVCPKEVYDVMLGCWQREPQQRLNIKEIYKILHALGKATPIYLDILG

[4] = target: TrkB, Dog (Canis familiaris, XM_851329) on 293 cells (dog (Canis familiaris)); experiment: cell-based ELISA on transfected 293 cells
TrkB, Dog (Canis familiaris, XM_851329) on 293 cells (dog (Canis familiaris)), sequence (Q16620 other isoform, or with tags, fused parts or gaps limits assumed): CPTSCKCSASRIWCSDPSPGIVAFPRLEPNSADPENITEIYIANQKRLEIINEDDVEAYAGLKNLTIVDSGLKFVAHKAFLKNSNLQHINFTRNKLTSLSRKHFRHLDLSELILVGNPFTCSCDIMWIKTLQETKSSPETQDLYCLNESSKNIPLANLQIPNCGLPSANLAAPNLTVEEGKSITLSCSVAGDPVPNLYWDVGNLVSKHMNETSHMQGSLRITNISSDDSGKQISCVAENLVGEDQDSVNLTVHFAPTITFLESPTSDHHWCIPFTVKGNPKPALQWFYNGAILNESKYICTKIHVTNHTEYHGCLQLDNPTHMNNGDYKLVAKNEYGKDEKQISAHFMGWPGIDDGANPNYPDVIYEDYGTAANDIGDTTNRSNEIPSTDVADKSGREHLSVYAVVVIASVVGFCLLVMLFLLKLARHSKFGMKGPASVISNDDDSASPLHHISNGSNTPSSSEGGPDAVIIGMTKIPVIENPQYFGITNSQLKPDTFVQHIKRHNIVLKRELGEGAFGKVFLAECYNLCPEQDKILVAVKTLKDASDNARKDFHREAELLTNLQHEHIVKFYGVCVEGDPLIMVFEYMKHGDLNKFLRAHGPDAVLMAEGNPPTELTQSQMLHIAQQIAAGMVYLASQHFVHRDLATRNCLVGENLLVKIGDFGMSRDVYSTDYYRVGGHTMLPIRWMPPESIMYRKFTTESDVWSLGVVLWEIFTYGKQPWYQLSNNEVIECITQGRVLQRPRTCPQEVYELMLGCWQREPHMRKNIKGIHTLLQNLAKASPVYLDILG

[5] = target: TrkB, Dog (Canis familiaris, XM_851329) on 293 cells (dog (Canis familiaris)); experiment: cell-based ELISA on transiently transfected HEK293 cells
[6] = target: human TrkC (open reading frame from NM_001012338.1) in HEK-293 cells (human) (UniProt Q16288); experiment: cell-based or functional assay
human TrkC (open reading frame from NM_001012338.1) in HEK-293 cells (human), sequence (Q16288 32-839): as the sequence (Q16288 32-839) above

hTrkB-a isoform fused to a small peptide epitope, in U2OS cells (Discoverx Pathhunter) (human), sequence (Q16620 32-822): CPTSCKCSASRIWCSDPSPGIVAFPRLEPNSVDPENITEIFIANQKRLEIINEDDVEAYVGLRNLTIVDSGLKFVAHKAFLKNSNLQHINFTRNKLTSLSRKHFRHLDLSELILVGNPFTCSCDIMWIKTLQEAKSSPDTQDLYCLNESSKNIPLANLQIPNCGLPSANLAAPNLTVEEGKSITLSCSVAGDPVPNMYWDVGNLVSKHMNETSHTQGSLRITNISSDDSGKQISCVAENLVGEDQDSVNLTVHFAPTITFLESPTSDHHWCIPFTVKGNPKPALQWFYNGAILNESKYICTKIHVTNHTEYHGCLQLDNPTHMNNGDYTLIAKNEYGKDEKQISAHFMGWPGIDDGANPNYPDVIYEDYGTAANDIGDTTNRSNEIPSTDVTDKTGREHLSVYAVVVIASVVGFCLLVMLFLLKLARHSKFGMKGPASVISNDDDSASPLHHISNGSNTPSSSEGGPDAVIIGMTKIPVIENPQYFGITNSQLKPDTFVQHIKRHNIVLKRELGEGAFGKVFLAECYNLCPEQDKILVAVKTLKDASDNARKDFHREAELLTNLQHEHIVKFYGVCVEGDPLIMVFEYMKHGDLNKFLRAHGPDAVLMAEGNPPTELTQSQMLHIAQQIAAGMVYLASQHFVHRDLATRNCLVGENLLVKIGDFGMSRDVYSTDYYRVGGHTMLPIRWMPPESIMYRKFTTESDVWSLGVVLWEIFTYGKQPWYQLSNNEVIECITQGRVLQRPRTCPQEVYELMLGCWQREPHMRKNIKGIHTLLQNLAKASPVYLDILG
hTrkA in the SHC1 recruitment assay (U2OS, Discoverx Pathhunter) (human), sequence (P04629 33-796): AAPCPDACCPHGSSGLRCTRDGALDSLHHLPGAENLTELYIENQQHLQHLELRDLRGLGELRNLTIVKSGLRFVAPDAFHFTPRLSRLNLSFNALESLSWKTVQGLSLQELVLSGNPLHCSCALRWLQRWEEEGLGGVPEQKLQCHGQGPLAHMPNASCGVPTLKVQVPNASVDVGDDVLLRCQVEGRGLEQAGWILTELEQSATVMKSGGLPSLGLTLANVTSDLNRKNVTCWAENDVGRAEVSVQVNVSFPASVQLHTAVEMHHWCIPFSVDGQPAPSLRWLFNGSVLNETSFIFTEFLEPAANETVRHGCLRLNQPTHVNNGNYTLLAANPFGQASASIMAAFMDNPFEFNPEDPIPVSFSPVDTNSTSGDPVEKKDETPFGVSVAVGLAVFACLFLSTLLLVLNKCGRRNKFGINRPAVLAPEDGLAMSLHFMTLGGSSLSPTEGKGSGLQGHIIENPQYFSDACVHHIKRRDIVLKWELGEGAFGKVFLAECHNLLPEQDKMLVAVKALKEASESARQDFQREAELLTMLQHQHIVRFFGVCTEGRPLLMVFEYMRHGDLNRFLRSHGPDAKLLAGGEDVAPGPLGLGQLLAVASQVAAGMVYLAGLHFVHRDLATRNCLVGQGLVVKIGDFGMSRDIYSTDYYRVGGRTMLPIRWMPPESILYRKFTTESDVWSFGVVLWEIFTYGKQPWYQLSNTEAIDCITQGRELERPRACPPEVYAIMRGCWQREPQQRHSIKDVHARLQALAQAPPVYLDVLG

B2: TAM-163 (huTOA-1 v1.0/1.4) (antibody, human IgG1, kappa, V domains shown)
VH: EVQLVESGGGLVQPGGSLRLSCAASGYSFTAYFMNWVRQAPGKGLEWVARINPNNGDTFYTQKFKGRFTISRDNAKNSLYLQMNSLRAEDTAVYYCARRDYFGAMDYWGQGTLVTVSS
VL: DIQMTQSPSSLSASVGDRVTITCRASQTISNNLHWYQQKPGKAPKLLIKSASLAISGVPSRFSGSGSGTDFTLTISSLQPEDFATYYCQQSNSWPNTFGGGTKVEIKR
EC50 [4]: 550 pM
EC50 [5]: 940 pM

B3: NT3 (R&D267N3) (ligand, UniProt P20783 139-257, looked up, species assumed)
Neurotrophin-3: YAEHKSHRGEYSVCDSESLWVTDKSSAIDIRGHQVTVLGEIKTGNSPVKQYFYETRCKEARPVKNGCRGIDDKHWNSQCKTSQTYVRALTSENNKLVGWRWIRIDTSCVCALSRKIGRT
modifications: Neurotrophin-3
EC50, SHC1 recruitment assay [1]: 1490 pM
Fold-increase, SHC1 recruitment assay [1]: 9.2 fold
EC50, SHC1 recruitment assay [2]: 500 pM
Fold-increase, SHC1 recruitment assay [2]: 7.7 fold
EC50, SHC1 recruitment assay [3]: 860 pM
Fold-increase, SHC1 recruitment assay [3]: 10.5 fold
Cre-luciferase reporter, fold increase [6]: 2.9 fold

Continued, values first:

EC50, SHC1 recruitment assay [1]: 430 pM
Fold-increase, SHC1 recruitment assay [1]: 9 fold
EC50, SHC1 recruitment assay [2]: 330 pM
Fold-increase, SHC1 recruitment assay [2]: 6.1 fold
Fold-increase, SHC1 recruitment assay [3]: 1.1 fold
B1: NT-4 (ligand, UniProt P34130 81-210, looked up, species assumed)
Neurotrophin-4: GVSETAPASRRGELAVCDAVSGWVTDRRTAVDLRGREVEVLGEVPAAGGSPLRQYFFETRCKADNAEEGGPGAGGGGCRGVDRRHWVSECKAKQSYVRALTADAQGRVGWRWIRIDTACVCTLLSRTGRA
modifications: Neurotrophin-4

EC50 [4]: 650 pM
B4: mouse TOA-1 antibody (antibody, mouse IgG1, V domains shown)
VH: EVQLQQSGPELVKPGASMKISCKTSGYSFTAYFMNWVKQSHGKSLEWIGRINPNNGDTFYTQKFKGKATLTVDKSSNTAHMELLSLTSEDSAIYYCGRRDYFGAMDYWGQGTSVTVSS
VL: AIVLIQSPATLSVTPGDSVSLSCRASQTISNNLHWYQQKSHESPRLLIKSASLAISGIPSRFSGSGSGTDFTLSISSVETEDFGMYFCQQSNSWPNTFGGGTKLEIK
